This is an account of results in patent US12202887B2, “Eradication of bacterial biofilm using anti-amyloid monoclonal antibodies” (priority 2018, dated 2025).

Like-named read-outs stand apart in the source and are kept apart here. Where only a bound is given, the exact number is not on record here.

Series [1] has as its system S. Typhimurium biofilm. Briefly: S. Typhimurium biofilms with or without ALZ.3H3, then ampicillin or DNase for 24 hours, Syto9 imaging. Format: cell-based. To be noted: for Overall biofilm appearance: wildtype biofilms treated alone for 24 hours after biofilm establishment. From the text:
Biofilms enhance the recalcitrance of bacteria to antibiotics (Keren et al., 2004, FEMS Microbiol Lett, 230(1):13-8, Brown et al., 1988, J Antimicrob Chemother, 22(6):777-80, Stewart, 2002, Int J Med Microbiol, 292(2):107-13). To enhance the clearance of bacterial biofilms, the structure of the biofilm was altered by employing ALZ.3H3 and then the biofilm was subjected to antibiotics to kill the bacteria within the disperse biofilm. […] an additional integral component of S. Typhimurium biofilms, wildtype or ALZ.3H3 incubated biofilms were exposed to X DNase treatment for an additional 24 hours. Biofilms were then stained with Syto9 and visualized using CSML. Excessive washing steps were avoided in aims to examine the architecture of the biofilms.

Series [2] addresses T1, Aβ42 conformers (Homo sapiens, UniProt P05067).
T1 construct: Amyloid beta derived diffusible ligands (ADDLs), also known as globulomers, produced from Aβ42
The series is described as follows: MAb binding to Aβ42 conformers by surface plasma resonance (SPR). The procedure: MAb binding to Aβ42 conformers was measured by surface plasma resonance (SPR) (Table 1). Calculated affinity constants (KD) were obtained using Qdat software. […] The 3H3 binding data is qualitatively most similar to the 4G1 and 6E10 mAbs.

The subject of series [3] is S. Typhimurium biofilm on medical grade catheters. Briefly: In vitro catheter assay: Salmonella biofilms grown on sterile i.v. catheters, GFP and Congo red. The settings on record: 0.5 mg/ml for 72 hours.
Method: (§1) Salmonella biofilms were grown alone or in the presence of ALZ3H3 antibody upon sterile i.v. catheters. Bacteria were labeled green using GFP. Congo red was used to stain for curli amyloid fibrils. […] To investigate the combination effect of ALZ3H3 and ampicillin on biofilm growth, mice were given 1 mg/ml Ampicillin in the drinking water 24 hours prior to catheter insertion. Sterile i.v. catheters were incubated for 24 hours with Salmonella typhimurium prior to insertion into the back flanks of Balb/C mice. 24 and 28 hours after catheter insertion 100 ug of ALZ3H3 was percutaneously inserted into the lumen of the catheter. 72 hours after catheter insertion, mice were euthanized and the catheters were removed. Bacteria were labeled green using GFP. Congo red was used to stain for curli amyloid fibrils. Catheters autofluoresced green.
Series [4] has as its system Salmonella typhimurium catheter biofilm. Briefly: In vivo catheter assay: Salmonella typhimurium colonized catheters inserted into back flanks of mice.
Method: as §1
Series [5] relates to Histadine tagged CsgA (His-CsgA), curli. The series is described as follows: Thioflavin T (ThT) fibrillization assay of His-CsgA. The class given is biochemical. The procedure:
The formation of monomers into mature curli fibrils can be monitored by incubation with Thioflavin T (ThT). Fluorescence of ThT increases as it binds to amyloid fibril, allowing the amyloid formation process to be measured spectroscopically. The formation of amyloid fibers can be defined by a three stage sigmoidal curve (Dueholm et al., 2011, Biochemistry, 50(39):8281-90; Wang et al., 2007, J Biol Chem, 282(6):3713-9). In the first stage, monomeric subunits are slow to self-associate and ThT fluorescence is minimal (Naiki et al., 1991, Lab Invest, 65(1):104-10). The reaction exponential increases as monomeric seeds oligomerize and continue to elongate (Naiki et al., 1991, Lab Invest, 65(1):104-10). This process is marked by a rapid increase in ThT fluorescence (Naiki et al., 1991, Lab Invest, 65(1):104-10). The oligomers elongate into mature fibrils and Tht fluorescence peaks (Dueholm et al., 2011, Biochemistry, 50(39):8281-90; Wang et al., 2007, J Biol Chem, 282(6):3713-9). […] Histadine tagged CsgA (His-CsgA), which will naturally self-associate and fibrillize, was incubated with 0.5 mg/ml ALZ.3H3 and the fibrillization reaction was monitored using ThT. As controls synthetic peptides CsgAR4-5 and CsgAR4-5N122A were incubated with Tht and the fribrillization reaction was monitored in parallel. […]

Series [6] concerns tau paired helical filaments (TAU PHF) isolated from AD brain homogenates. Briefly: SPR binding to tau paired helical filaments. The settings on record: antibody concentration 66.7 nM. The method, then:
FIG. 14 depicts a surface plasma resonance (SPR) analysis for binding to aggregated islet amyloid peptide IAPP and tau paired helical filaments (TAU PHF) isolated from AD brain homogenates. The antibody concentrations used in this study were 110 nM for the IAPP and 66.7 nM for the Tau-PHF.
Human mAbs were assayed by SPR for binding to aggregated islet amyloid peptide IAPP and tau paired helical filaments (TAU PHF) isolated from AD brain homogenates (FIG. 14). The antibody concentrations used in this study were 110 nM for the IAPP and 66.7 nM for the Tau-PHF.

In series [7] the test system is E. coli UTI89 biofilm. Briefly: Colony forming units per biofilm on glass coverslips, E. coli UTI89.
Method: (§2) Biofilms of S. Typhimurium (STM) or E. coli UTI89 grown in the absence or presence of 3H3 (250 ug/ml, 125 ug/ml, 50 ug/ml, 25 ug/ml, 10 ug/ml, 1 ug/ml) as well as grown with 0.5 mg/ml control A6 antibody on top of sterile glass coverslips for 72 hours at 26 C in a sterile 24 well dish. S. Typhimurium curli mutant (csgBA) and UTI89 curli mutant (csgBA) were also grown as a negative controls. In select conditions, biofilms were incubated for an additional 24 hours at 26 C with 30 ug/ml Ampicillin (Amp). The sterile glass coverslip, which was used as a surface for the biofilm to grow upon, was placed in a sterile 15 ml conical tube that contained 3 ml of sterile PBS. The biofilm was sonicated for 10 seconds at a setting of 4 using a ThermoFisher Sonic Dismembrator. Bacteria were enumerated by serial diluting 1:10 in sterile PBS and spot plating on agar plates.
(§3) Biofilms of S. Typhimurium (STM) or E. coli UTI89 grown in the absence or presence of 3H3 (250 ug/ml, 125 ug/ml, 50 ug/ml, 25 ug/ml, 10 ug/ml, 1 ug/ml) as well as grown with 0.5 mg/ml control A6 antibody on top of sterile glass coverslips for 72 hours at 26 C in a sterile 24 well dish. S. Typhimurium curli mutant (csgBA) and UTI89 curli mutant (csgBA) were also grown as a negative controls. In select conditions, biofilms were incubated for an additional 24 hours at 26 C with 30 ug/ml Ampicillin (Amp). […]
Series [8] has as its system pre-established S. Typhimurium biofilms. Briefly: mAb added to pre-established S. Typhimurium biofilms, CSLM and particle count. The class given is cell-based. The method, then: To determine if ALZ.3H3 can reduce biofilm formation of pre-established biofilms of S. Typhimurium, 0.5 mg/ml of ALZ.3H3 was added for an additional 24 hours to a 24 hour pre-established biofilm of S. Typhimurium, or 0.5 mg/ml of ALZ.3H3 was added for 24 hours to a 48 hour pre-established biofilms. These biofilms were then compared, respectively, to a 48 and 72 hour S. Typhimurium biofilm that was not exposed to ALZ.3H3 (FIG. 2A). Biofilms were stained with Syto9 and imaged using CSML. Biofilms were not wash extensively in order determine the impact of ALZ.3H3 on biofilm architecture. […] Using the thresholding technique described earlier, the number of particles above the thickness of the wild-type S. Typhimurium were counted.

For series [9], the system named is S. Typhimurium (STM) biofilm. The series is described as follows: Colony forming units per biofilm on glass coverslips, S. Typhimurium.
Method: as §2, §3
Series [10] relates to S. Typhimurium biofilm. Briefly: S. Typhimurium biofilms established in presence of mAb, Syto9 stain, CSLM, ImageJ particle count, supernatant plating. The class given is cell-based. The settings on record: 0.5 mg/ml. The method, then: After growth, biofilms were stained with Syto9 and imaged using CSLM. Three dimensional architecture was examined by creating 3D surface plots using ImageJ. […] To quantify the disperse biofilm created by treatment with ALZ.3H3, through the use of ImageJ all particles above the thickness of a wild-type S. Typhimurium ([…]) was used to set the threshold value, and these threshold parameters were applied to subsequent treatments (FIG. 1B). […] The bacteria recovered from the supernatants is representative of the loose disperse biofilm matrix that is easily dissociated from the biomass.

T1 sequence (P05067 672-713 limits assumed): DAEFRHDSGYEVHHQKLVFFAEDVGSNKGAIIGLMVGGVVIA
Sequence of tau paired helical filaments (TAU PHF) isolated from AD brain homogenates (P10636 623-695 limits assumed): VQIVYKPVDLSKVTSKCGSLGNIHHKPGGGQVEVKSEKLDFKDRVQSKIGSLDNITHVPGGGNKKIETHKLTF

For the molecule `CC1(C)S[C@@H]2[C@H](NC(=O)[C@H](N)c3ccccc3)C(=O)N2[C@H]1C(=O)O` [ampicillin], the Overall biofilm appearance result in series [1] is recorded as “no alteration in overall biofilm appearance”.

For DNase, the Overall biofilm appearance result in [1] is recorded as “no alteration in overall biofilm appearance”.

B1: 4A6: human anti-amyloid mAb cloned from B cells of an Alzheimer's patient; heavy chain SEQ ID NO:57, light chain SEQ ID NO:59 (antibody, V domains shown)
VH: QVQLVQSGAEVKKPGASMRVSCKASGYTYTAYYIHWMRQAPGQGLEWMGWINPHIGSTNYAEKFRGRVTLTRDTSIKTAYMDLDRLTSDDTAIYYCARVRAPRSISGTLNSYGMDVWGQGTTVAVSS
VL: DIVMTQSPSSLSASVGDRVVITCRASLRIGTFLNWYQQTQGRAPKLLVSSASTLQSGVPSRFSGSGSGTDFTLTINSLQPEDFATYYCQQSYSTTWTFGQGTKVELK
modifications: Chemically Synthesized, ALZ.4A6 Heavy Chain; Chemically Synthesized, ALZ.4A6 Light Chain
For B1, the “Binding preference among Aβ42 conformers” value in [2] was “preferentially bind Aβ fibrils”. The Kd is over 2000 nM in series [2] (C-terminal biotinylated ADDLs/globulomers, read-out: Calculated affinity constant (KD), CTB oligo) and over 2000 nM in series [2] (N-terminal biotinylated monomers, read-out: Calculated affinity constant (KD), NTB mono).

B2: ALZ.3H3: human monoclonal antibody with pan-amyloid binding activity; heavy chain SEQ ID NO:2, light chain SEQ ID NO:35 (antibody)
VH: MEFGLSWVFLVALLRGVQCQVQLVESGGGVVQPGRSLRLSCAASGFSFSTYGMHWVRQAPGKGLEWVAVISYDGSRKYYADTGKGRFTISRDNSKNTLYLEMNGLRAEDTAVYHCAKDLRRELGFGNRDYHYYGMDAWGQGTTVTVSSASTK
light: LTQPRSVSGSPGQSVTMSCTGTNSDIGGYNYVSWYQQHPGKAPKLMIYDVYKRPSGVPDRFSGSKSGNTASLTISGLQAEDEADYYCCSYAGTNNLIFGGGTKLTVLGQPKAAPSVTLFPPSSEELQANKATLVCLISDFYPGAVTVAWKADSSPVKAGVETTTPSKQSNNKYAASSYLSLTPEQWKSHRSYSCQV
modifications: Chemically Synthesized, ALZ.3H3 Heavy Chain; Chemically Synthesized, ALZ.3H3 Light Chain
Take B2: in [3], the Catheter biofilm morphology entry is reported as “the biofilm was dispersed”. Besides, the “Congo red staining (curli fibers)” value in series [3] is recorded as “no significant staining with Congo red”. In addition, in series [4] (100 ug percutaneously into catheter lumen, catheters removed at 72 hours), the “Catheter biofilm morphology and curli” value is “disperse morphology with little curli”. Also, the “Amyloid incorporation in catheter biofilm” value in series [4] (combination: 100 ug ALZ3H3 into lumen + 1 mg/ml ampicillin in drinking water) is recorded as “little to no amyloid incorporation”. The “Lag time (t0) for His-CsgA to self-associate and oligomerize” value in [5] (0.5 mg/ml antibody, compared to synthetic peptide CsgAR4-5) was “significant increase in the lag times”. The “ThT relative fluorescence units (fibril formation)” value in series [5] (His-CsgA with 0.5 mg/ml antibody) is listed as “significant reduction in the relative fluorescence units”. The “Binding to Tau PHF” value in series [6] is reported as “notable for binding to Tau PHF”. Also, the CFU/biofilm result is reported as “reduction of CFU/biofilm” in [7] (UTI89 grown with 3H3 (1-250 ug/ml), 72 hours at 26 C); “additional reduction in CFU/biofilm” in series [7] (UTI89 grown with 3H3, then 30 ug/ml Ampicillin for additional 24 hours); “reduction of CFU/biofilm” in [9] (STM grown with 3H3 (1-250 ug/ml), 72 hours at 26 C); “additional reduction in CFU/biofilm” in series [9] (STM grown with 3H3, then 30 ug/ml Ampicillin for additional 24 hours). In addition, the “Number of particles above the thickness of wild-type biofilm” value in [8] (24 hour pre-established biofilm + 0.5 mg/ml for 24 hours) is listed as “increased the number of particles”; in series [8] (48 hour pre-established biofilm + 0.5 mg/ml for 24 hours), “the number of particles increased as well”. Moreover, the Biofilm matrix architecture entry in [8] (24 hour pre-established biofilm + 0.5 mg/ml for additional 24 hours, vs 48 hour biofilm) is “began to exhibit a more disperse matrix”; in series [8] (48 hour pre-established biofilm + 0.5 mg/ml for additional 24 hours, vs 72 hour biofilm), “the biofilm matrix was more disperse”. In addition, the Biofilm mass entry in series [1] (0.5 mg/ml ALZ.3H3 during growth, then antibiotic treatment (ampicillin) for additional 24 hours) is listed as “significant reduction in the biofilm mass to the levels below detection”. The “Number of particles above the thickness of wild-type biofilm (20 μM)” value in series [10] (72 hours at 28° C.) is “significant increase in number of particles”. Also, the Biofilm architecture entry in [10] (72 hours at 28° C., 3D surface plots) was “altered the architecture of biofilm forming a disperse biofilm topography”. Also, the “Bacteria recovered from biofilm supernatant” value in [10] (plating supernatants) is on record as “significantly more bacteria was recovered”.

B3: 4G1: human anti-amyloid mAb cloned from B cells of an Alzheimer's patient; heavy chain SEQ ID NO:61, light chain SEQ ID NO:63 (antibody, V domains shown)
VH: EEHLVESGGALVQPGGSLRLSCEASGFTFRSYWMTWVRQAPGKGLEWLANIKQDGSDYYYVDSVKGRFTISRDNAKNTLYLQMNNLRADDTAVYFCARDARYRDTTWPQYYFYYFMDVWGKGTTVTVSS
VL: DIQLTQSPSSLSASIGDRVTVTCRASQSISNYLNWYQQKPGKAPKLLIYAASNLHTGVPSRFSGSGSGTHFTLTISSLQPEDFATYYCQLSYNNPRTFGPGTTVDIR
modifications: Chemically Synthesized, ALZ.4G1 Heavy Chain; Chemically Synthesized, ALZ.4G1 Light Chain
Regarding B3, the “Binding to Tau PHF” value in series [6] was “notable for binding to Tau PHF”.

The term Kd denotes a measure of binding affinity in units of concentration.
